Target: SARS-CoV-2南非株(B.1.351)活病毒的S蛋白 (SARS-CoV-2 B.1.351)
Assay: cell-based or functional assay

B1: 9K抗体 (antibody, V domains shown)
VH: EVQLVESGGGVVQPGRSLGLSCAVSGFTFSSYAMHWVRQAPGKGLEWVALISNDGTIDSYADSVKGRFTISRDNSKNTLYLRMSSLRAEDTAVYYCARDKEQLVPTFDYWGQGTLVTVSS
VL: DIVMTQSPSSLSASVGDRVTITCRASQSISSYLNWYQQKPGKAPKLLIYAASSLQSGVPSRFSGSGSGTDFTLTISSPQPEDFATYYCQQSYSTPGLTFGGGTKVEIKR
中和滴度(半抑制浓度，IC50), live virus CPE assay on Vero E6 cells: 11.5 µg/mL

From patent CN113929774A (INST MICROBIOLOGY CAS, dated 2022)
